Measurements as given in US20170052184A1 (published 2017).

T1: HCV bt-141-161 (Peptide 2, HCVc 141-161) (Hepatitis C virus (numbering per HCV-1), biotin (carboxy-terminal per; N-terminal per))
T1 peptide: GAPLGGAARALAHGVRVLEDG

T2: HCV bt-134-154 (Peptide 1, HCVc 134-154) (Hepatitis C virus (numbering per HCV-1), biotin (carboxy-terminal per; N-terminal per))
T2 peptide: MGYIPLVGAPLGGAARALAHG

T3: HCV bt-151-171 (Peptide 3, HCVc 151-171) (Hepatitis C virus (numbering per HCV-1), biotin (carboxy-terminal per; N-terminal per))
T3 peptide: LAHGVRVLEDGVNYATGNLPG


Legend:
Test in all cases: EIA, captured mAb + biotin peptide
[1] = target: T1, HCV bt-141-161 (Peptide 2, HCVc 141-161)
[2] = target: T2, HCV bt-134-154 (Peptide 1, HCVc 134-154)
[3] = target: T3, HCV bt-151-171 (Peptide 3, HCVc 151-171)

| Binder | Reactivity (OD 492 nm) [1] [OD units] | Reactivity (OD 492 nm) [2] [OD units] | Reactivity (OD 492 nm) [3] [OD units] |
| --- | --- | --- | --- |
| HCV 208A-983 (antibody, V domains shown) VH: QGQMQQSGAELVKPGASVKLSCKTSGFTFSSSYFSWLKQKPGQSLEWIAWIYAGTGNTIYNQKFTDKAQLTVDTASSTAFMQLSSLTIEDSAIYYCAISGTGFTYWGQGTLVTVSA VL: DVLMTQTPLSLPVNLGDQASISCRSSQSLLHSNGNTYLEWFLQKPGQSPKLLIYNVSNRFSGVPDRFSGSGSGTDFTLKISRVEAEDLGVYYCFQGSHVPFTFGSGTKLAIKR | 0.4 | 3.03 | 0.05 |
| HCV 208A-134 (antibody, V domains shown) VH: QGQMQQSGAELAKPGASVKLSCKTSGFTFSSSYISWLKQKPGQSLEWIAWIYAGTGNTNYNQKFTDKAQLTVDTSSSTAYMQLSSLTTEDSAIYYCAISGTGFTYWGQGTLVTVSA VL: EVLMTQSPLSLPVSLGDQASISCRSSQSLEHTNGNTYLEWFLQRPGQPPKLLIYKVSSRFSGVPDRFSGSGSGTDFTLKISRVEAEDLGVYYCFQGSHVPFTFGSGTKLAIKR | 0.08 | 2.06 | 0.06 |
| HCV 208B-1024 (antibody, V domains shown) VH: EVQLVESGGDLVKPGGSLKLSCAASGFTFSNYGMSWVRQTPDKRLEWVATISSGGSYSYYPDSVKGRFTISRDNAKNILYLQMSSLKSEDTAMYYCASLYYGYGDYWGQGTAFTVSS VL: DVLMTQTPLSLPVSLGDQASISCRSSQSIVHSNGNTYLEWYLQKLGQSPKLLIYRVSNRFSGVPDRFSGSGSGTDFTLKISRVEAEDLGVYYCFQGSHVPWTFGGGTKLEIKR | 0.75 | 0.08 | 0.15 |
| HCV 208A-557 (antibody, V domains shown) VH: QGQMQQSGAELVKPGASVKLSCKTSGFTFSSSYISWLKQKPGQSLEWIAWIYAGTGNTNYNQKFTDKAQLTVDTSSSTAYMQLSSLTTEDSAIYYCAISGTGFTYWGQGTLVTVSA VL: DIALTQSPASLAVSLGQRATISCRASQSVSTSRYSYMHWYQQKPGQPPELLIKYASNLESGVPARFSGSGSGTDFTLNIHPVGEEDTATYYCQHSWDFPFTFGSGTKLEIKR | 2.41 | 0.05 | 0.06 |
| HCV 208B-281 (antibody, V domains shown) VH: QGQLQQSGAELVKPGASVKLSCKTSGFTFSSSYISWLKQRPGQSLEWIAWIYAGTGGTNYNQKFTDKAQLTVDTSSSTAYMQFSSLTTEDSAIYYCAISGTGFIYWGQGTLVTVSA VL: DVLMTQTPLSLPVSLGDQASISCRSSQSLVHNNGNTYLEWFLQKPGQSPKLLIYKVSNRFSGVPDRFSGSGSGTDFTLKISRVEAEDLGVYYCFQGSHVPFTFGSGTKLEIKR | 0.16 | 1.48 | 0.12 |
| HCV 208B-189 (antibody, V domains shown) VH: QVHLQQSGAELAKPGASVQMSCKASGYTFTANKMHWARQRPRQGLEWIGYIDPASGYTEYNQKIKDRATLTADKSSSTAYMQLSSLTSEDSAVYYCTNFAYWGQGTLVTVST VL: not shown | 0.15 | 0.55 | 3.95 |
| HCV 208B-560 (antibody, V domains shown) VH: EVQLQQSGPELEKPGASVKISCKTSGYTFTEYAMHWVKQSHGMSLEWIGGINPSNGNAIYNQIFKDKATLTVDRSSSTAYMGLRSLTFGDSGVYFCVRRQLDFFDYWGQGASLTVSS VL: DIVVTQSPASLAVSLGQRATISCRASQSVSTSRYSYLHWYQQKPGQPPKLLIKYASNLESGVPARFSGSGSGTDFTLNIHPVGEEDTATYYCQHSWEFPFTFGSGTKLEIKR | 3.9 | 0.11 | 0.14 |
| HCV 208A-830 (antibody, V domains shown) VH: EVRLQQPGPEVEKPGASVKISCKTSGYTFTEYAIHWVKQSHGESLEWIGGINPSNGDPIYNQIFKDKATLTVDRSSNTAYMGLRSLTVGDSGVYFCVRRQLDYFDFWGQGASLTVSS VL: DIVLTQSPASLAVSLGQRATISCRSSQSVSTSRYSYLHWYQQKPGQPPKLLIKYASNLESGVPARFSGSGSGTDFTLNIHPVGEEDPATYYCQHSWEFPFTFGSGTKLEIKR | 2.88 | 0.07 | 0.08 |
| HCV 208A-222 (antibody, V domains shown) VH: EVQLQQSGPELEKPGASVRISCKTSGYTFTEYAMHWVKQSHGKSLEWIGGINPNNGNAIYNQIFKDKATLTVDRSSSTAYMGLRSLTFGDSGVYFCVRRQLDYFDYWGQGASLTVSS VL: DIVVTQSPASLAVSLGQRATISCRASQSVSTSRYSYLHWYQQKPGQPPKLLIKYASNLESGVPARFSGSGSGTDFTLNIHPVGEEDTATYYCQHSWEFPFTFGSGTKLEIKR | 2.7 | 0.06 | 0.08 |
| HCV 208A-605 (antibody, V domains shown) VH: EVQLQQSGPELEKPGASVKISCKTSGYTFTEYAIHWVKQSHGMSLEWIGGINPSNGNAIYNQIFKDKATLTVDRSSSTAYMGLRSLTFGDSGVYFCVRRQLDFFDYWGQGASLTVSS VL: DIVVTQSPASLAVSLGQRATISCRASQSVSTSRYSYLHWYQQKPGQPPKLLIKYASNLESGVPARFSGSGSGTDFTLNIHPVGEEDTATYYCQHSWEFPFTFGSGTKLEIKR | 3.71 | 0.22 | 0.16 |
| HCV 208A-874 (antibody, V domains shown) VH: QVQLQQPGAELVKPGASVKLSCKASGYTLSSYWMHWVKQRPGQGLEWIGEIHPSDSYTSYNQKFKDKATLTVDKSSSTAYMQLSSLTSEDSAVYYCARGGYYRYDEFAYWGQGTLVTVSA VL: DIVMTQSHKFMSTSIGDRVSITCKASQNVSPAVAWYQQKPGQSPKLLIYSASSRYTGVPDRFTGSGSGTAFTFTISSVQAEDLAVYFCQQHFSTPWTFGGGTMLEIKR | 0.73 | 0.05 | 0.06 |
| HCV 208A-638 (antibody, V domains shown) VH: QGQLQQPGAEFVKPGASLKLSCRASGYTFTSYWIHWVKQRPGQGLEWIGEVDPSDSYINQNEKFRGKATLTVDKSSSTAYMQLGSLTSEDSAVYYCARHYYGVLDSWGQGTALTVSS VL: QIVLTQSPTIMSASLGERVTMTCTASSSVSSSYLHWFQQKPGSSPKLWIYSTSNLASGVPPRFSGSGSGTSYSLSISSVEAEDVATYYCLQFHRSPWTFGGGAKLEIKR | 2.96 | 0.07 | 0.09 |
| HCV 208B-178 (antibody, V domains shown) VH: DVKLVESGGGLVKLGGSLKLSCAASGFTFSSYYMSWVRQTPEKRLELVAAINSNGGSTYYPDTVKGRFTISRDNAKNTLYLQMSSLKSEDTALYYCARHGGLGRRDWYFDVWGAGTTVTVSS VL: DIVLTQSPASLAVSLGQRATISCRASESVDNYGISFMHWYQQKPGQPPKLLIYRASNLESGIPARFSGSGSRTDFTLTINPVETDDVATYYCQQSNKDPFTFGSGAKLEIKR | 0.07 | 0.1 | 1.69 |
| HCV 208A-422 (antibody, V domains shown) VH: DVQLQESGPGLVNPSQSLSLTCSVTGYSITSGYYWIWIQQSPGNKLEWMGYIKYDGGNNYSPSLKNRISIARDTSKNQCFLKLNSVTIEDTATYYCTRGSDSFDYWGQGTTLTVSS VL: DIVLTQSPASLAVSLGQRAIISCKASQSVSFAGTNLMHWYQQKPGQQPKLLIYRASNLETGVPTRFSGSGSRTDFTLNIHPVEEDDAATYYCQQSREYYTFGGGTKLEIKR | 0.84 | 0.05 | 0.1 |
| HCV 208A-442 (antibody, V domains shown) VH: DVQLQESGPGLVNPSQSLSLTCSVTGYSITSGYYWIWIRQFPGNKLEWMGYIKYDGGNNYSPSLKNRISIARDTSKNQFFLKLNSVTIEDTATYYCTRGSDSFDYWGQGTTLTVSS VL: DIVLTQSPASLAVSLGQRAIISCKASQSVSFAGTNLMHWYQQKPGQQPKLLIYRASNLETGVPTRFSGSGSRTDFTLNIHPVEEDDAATYYCQQSREYYTFGGGTKLEIKR | 3.04 | 0.08 | 0.06 |
| HCV 208B-174 (antibody, V domains shown) VH: EVKLEESGGGLVQPGGSMKLSCVASGFSFSSYWMSWVRQSPEKGLDWVAEIRLRSDNYATHYAESVKGRFTISRDDSISRLYLQMNTLRAEDTGIYYCTWMTYWGQGTLVTVSA VL: QNVLTQSPAIMSASPGEKVTMSCSASSSVTYMFWYQLKPESSPRLLIYDTSNLASGVPVRFSGSGSGTSYSLTISRMEAEDAATYYCQEWSSYPLTFGAGTKLDLKR | 1.26 | 0.08 | 0.07 |
| HCV 208A-877 (antibody, V domains shown) VH: QLQQSGPELVKPGASVKISCKTSGYTFTENAMHWVKQSRGKSLEWIGGVNPNNGDTVYTQKFKGKATLTVAKSSSTAYMELRTMTCEESTVYYCASREPDFFDYWGQGSSVTVSS VL: QIVLTQSPAIMSVSPGEKVSMTCSASSSVTYMHWYQQKSGTSPKRWIYDTSELASGVPARFSGSGSGTTYSLTISSMEAEDAATYYCQQWSNKPLTFGAGTKLELKR | 1.21 | 0.06 | 0.05 |
| HCV 208B-589 (antibody, V domains shown) VH: QVQLQQSGAGLAKPGASVKMSCKASGYTFTANKMHWAKQRPGQGLEWIGYIDPSSGYTEYNHKIQDKATLTADTSSSTAYMQLSSLTFEDSAVYYCTNFAYWGQGTLVTVSA VL: DIVMTQTPLTLSVTIGQPASISCKSSQSLLFTNGKTYLNWFLQRPGQSPKRLIYLLSKLDSGVPDRFSGSGSGTDFTLKISRVEAEDLGVYYCLQSTYFPLTFGAGTKLELKR | 0.1 | 0.27 | 2.85 |
